Results published in publication PMC9482650, “Quantitative fragmentomics allow affinity mapping of interactomes” (Nature Communications, 2022).

T1: GRIP1_5, Q9Y3R0
T1 sequence (Q9Y3R0 568-668, limits assumed, looked up): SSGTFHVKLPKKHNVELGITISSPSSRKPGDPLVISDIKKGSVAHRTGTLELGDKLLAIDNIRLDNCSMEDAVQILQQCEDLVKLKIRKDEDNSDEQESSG

T2: SHANK1, Q9Y566
T2 sequence (Q9Y566 658-767, limits assumed, looked up): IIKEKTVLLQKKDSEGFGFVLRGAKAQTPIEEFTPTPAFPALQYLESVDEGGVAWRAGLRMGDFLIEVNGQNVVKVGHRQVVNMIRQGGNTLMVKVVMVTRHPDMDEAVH

T3: SNTB1, Q13884
T3 sequence (Q13884 107-205, limits assumed, looked up): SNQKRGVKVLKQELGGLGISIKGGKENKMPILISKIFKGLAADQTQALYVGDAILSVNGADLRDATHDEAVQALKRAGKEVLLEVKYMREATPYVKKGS

T4: APBA3_1, O96018
T4 sequence (O96018 389-490, limits assumed, looked up): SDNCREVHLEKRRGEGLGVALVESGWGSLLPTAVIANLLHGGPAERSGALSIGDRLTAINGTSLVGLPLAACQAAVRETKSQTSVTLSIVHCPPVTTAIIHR

T5: FRMPD1, Q5SYB0
T5 sequence (Q5SYB0 52-145, limits assumed, looked up): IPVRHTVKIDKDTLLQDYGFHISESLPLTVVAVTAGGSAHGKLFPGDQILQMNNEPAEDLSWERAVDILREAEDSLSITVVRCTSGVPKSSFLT

T6: DVL3, Q92997
T6 sequence (Q92997 244-331, limits assumed, looked up): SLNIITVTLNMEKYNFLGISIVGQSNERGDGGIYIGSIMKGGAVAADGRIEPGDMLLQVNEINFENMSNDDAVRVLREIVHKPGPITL

T7: PDZD7_3, Q9H5P4
T7 sequence (Q9H5P4 857-944, limits assumed, looked up): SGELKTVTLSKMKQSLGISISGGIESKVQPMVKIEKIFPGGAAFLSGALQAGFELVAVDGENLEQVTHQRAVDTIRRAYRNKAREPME

T8: APBA2_1, Q99767
T8 sequence (Q99767 563-664, limits assumed, looked up): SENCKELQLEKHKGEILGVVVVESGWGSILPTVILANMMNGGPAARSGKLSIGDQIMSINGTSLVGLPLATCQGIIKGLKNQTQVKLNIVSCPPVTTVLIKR

T9: TJP3_3, O95049
T9 sequence (O95049 375-456, limits assumed, looked up): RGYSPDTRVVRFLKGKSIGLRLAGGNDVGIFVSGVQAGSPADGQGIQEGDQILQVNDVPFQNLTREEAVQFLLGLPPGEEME

T10: ARHGAP21, Q5T5U3
T10 sequence (Q5T5U3 45-169, limits assumed, looked up): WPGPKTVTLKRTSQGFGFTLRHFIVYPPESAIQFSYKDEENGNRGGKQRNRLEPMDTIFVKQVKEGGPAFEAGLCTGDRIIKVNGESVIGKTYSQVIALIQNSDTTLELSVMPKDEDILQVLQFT

T11: DLG3_1, Q92796
T11 sequence (Q92796 125-227, limits assumed, looked up): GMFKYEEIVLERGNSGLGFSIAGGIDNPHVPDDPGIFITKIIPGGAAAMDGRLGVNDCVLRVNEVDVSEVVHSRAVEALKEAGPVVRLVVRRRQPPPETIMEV

T12: DLG3_2, Q92796
T12 sequence (Q92796 221-321, limits assumed, looked up): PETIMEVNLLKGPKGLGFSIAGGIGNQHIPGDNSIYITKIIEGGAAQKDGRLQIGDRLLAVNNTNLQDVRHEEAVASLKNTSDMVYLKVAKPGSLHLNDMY

T13: SYNJ2BP, P57105
T13 sequence (P57105 8-110, limits assumed, looked up): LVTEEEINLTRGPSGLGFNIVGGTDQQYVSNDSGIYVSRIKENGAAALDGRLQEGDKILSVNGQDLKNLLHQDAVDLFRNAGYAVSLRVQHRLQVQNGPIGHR


Biological target: HTRA1, Q92743
Experiment: holdup assay
Parameters: key: below the threshold = too weak to quantify, mostly under pKd 3.1 to 4
Conditions: plain residues with an end cap or a label only (N-terminal biotin on a linker: ado-ado)

HTRA1, Q92743, sequence (Q92743 360-477): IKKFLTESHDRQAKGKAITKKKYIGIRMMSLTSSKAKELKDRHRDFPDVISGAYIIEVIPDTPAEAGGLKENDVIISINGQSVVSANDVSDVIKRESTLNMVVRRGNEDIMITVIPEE

pKd | Binder
5.15 | EFKQTSSFLV [JAM1, Q9Y624]
4.97 | DFKHTKSFII [JAM2, P57087]
below the threshold | SQPLLVHDDV [KIT, P10721]

Biological target: T1, GRIP1_5, Q9Y3R0
Experiment: holdup assay
Parameters: key: below the threshold = too weak to quantify, mostly under pKd 3.1 to 4
Conditions: plain residues with an end cap or a label only (N-terminal biotin on a linker: ado-ado)

pKd | Binder
below the threshold | EFKQTSSFLV [JAM1, Q9Y624]
below the threshold | DFKHTKSFII [JAM2, P57087]
below the threshold | SQPLLVHDDV [KIT, P10721]

Biological target: SCRIB_2, Q14160
Experiment: holdup assay
Parameters: key: below the threshold = too weak to quantify, mostly under pKd 3.1 to 4
Conditions: plain residues with an end cap or a label only (N-terminal biotin on a linker: ado-ado)

SCRIB_2, Q14160, sequence (Q14160 857-960): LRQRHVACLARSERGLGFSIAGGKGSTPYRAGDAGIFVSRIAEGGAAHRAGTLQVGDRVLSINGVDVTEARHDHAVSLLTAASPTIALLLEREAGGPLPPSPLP

pKd | Binder
below the threshold | EFKQTSSFLV [JAM1, Q9Y624]
below the threshold | DFKHTKSFII [JAM2, P57087]
below the threshold | SQPLLVHDDV [KIT, P10721]

Biological target: T2, SHANK1, Q9Y566
Experiment: holdup assay
Parameters: key: below the threshold = too weak to quantify, mostly under pKd 3.1 to 4
Conditions: plain residues with an end cap or a label only (N-terminal biotin on a linker: ado-ado)

pKd | Binder
below the threshold | EFKQTSSFLV [JAM1, Q9Y624]
below the threshold | DFKHTKSFII [JAM2, P57087]
below the threshold | SQPLLVHDDV [KIT, P10721]

Biological target: T3, SNTB1, Q13884
Experiment: holdup assay
Parameters: key: below the threshold = too weak to quantify, mostly under pKd 3.1 to 4
Conditions: plain residues with an end cap or a label only (N-terminal biotin on a linker: ado-ado)

pKd | Binder
below the threshold | EFKQTSSFLV [JAM1, Q9Y624]
below the threshold | DFKHTKSFII [JAM2, P57087]
below the threshold | SQPLLVHDDV [KIT, P10721]

Biological target: MAST1, Q9Y2H9
Experiment: holdup assay
Parameters: key: below the threshold = too weak to quantify, mostly under pKd 3.1 to 4
Conditions: plain residues with an end cap or a label only (N-terminal biotin on a linker: ado-ado)

MAST1, Q9Y2H9, sequence (Q9Y2H9 962-1065): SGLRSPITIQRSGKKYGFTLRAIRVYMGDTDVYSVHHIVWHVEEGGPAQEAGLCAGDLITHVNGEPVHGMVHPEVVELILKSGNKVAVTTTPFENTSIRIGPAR

pKd | Binder
3.56 | EFKQTSSFLV [JAM1, Q9Y624]
3.7 | DFKHTKSFII [JAM2, P57087]
below the threshold | SQPLLVHDDV [KIT, P10721]

Biological target: T4, APBA3_1, O96018
Experiment: holdup assay
Parameters: key: below the threshold = too weak to quantify, mostly under pKd 3.1 to 4
Conditions: plain residues with an end cap or a label only (N-terminal biotin on a linker: ado-ado)

pKd | Binder
below the threshold | EFKQTSSFLV [JAM1, Q9Y624]
below the threshold | DFKHTKSFII [JAM2, P57087]
below the threshold | SQPLLVHDDV [KIT, P10721]

Biological target: PDLIM1, O00151
Experiment: holdup assay
Parameters: key: below the threshold = too weak to quantify, mostly under pKd 3.1 to 4
Conditions: plain residues with an end cap or a label only (N-terminal biotin on a linker: ado-ado)

PDLIM1, O00151, sequence (O00151 1-87): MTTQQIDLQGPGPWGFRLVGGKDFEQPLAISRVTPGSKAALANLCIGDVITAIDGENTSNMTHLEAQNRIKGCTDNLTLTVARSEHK

pKd | Binder
below the threshold | EFKQTSSFLV [JAM1, Q9Y624]
below the threshold | DFKHTKSFII [JAM2, P57087]
below the threshold | SQPLLVHDDV [KIT, P10721]

Biological target: T5, FRMPD1, Q5SYB0
Experiment: holdup assay
Parameters: key: below the threshold = too weak to quantify, mostly under pKd 3.1 to 4
Conditions: plain residues with an end cap or a label only (N-terminal biotin on a linker: ado-ado)

pKd | Binder
below the threshold | EFKQTSSFLV [JAM1, Q9Y624]
below the threshold | DFKHTKSFII [JAM2, P57087]
below the threshold | SQPLLVHDDV [KIT, P10721]

Biological target: MAGI2_5, Q86UL8
Experiment: holdup assay
Parameters: key: below the threshold = too weak to quantify, mostly under pKd 3.1 to 4
Conditions: plain residues with an end cap or a label only (N-terminal biotin on a linker: ado-ado)

MAGI2_5, Q86UL8, sequence (Q86UL8 915-1017): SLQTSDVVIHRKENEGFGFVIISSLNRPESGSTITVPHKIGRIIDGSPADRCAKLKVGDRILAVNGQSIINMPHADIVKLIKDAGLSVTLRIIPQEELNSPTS

pKd | Binder
below the threshold | EFKQTSSFLV [JAM1, Q9Y624]
below the threshold | DFKHTKSFII [JAM2, P57087]
below the threshold | SQPLLVHDDV [KIT, P10721]

Biological target: T6, DVL3, Q92997
Experiment: holdup assay
Parameters: key: below the threshold = too weak to quantify, mostly under pKd 3.1 to 4
Conditions: plain residues with an end cap or a label only (N-terminal biotin on a linker: ado-ado)

pKd | Binder
below the threshold | EFKQTSSFLV [JAM1, Q9Y624]
3.67 | DFKHTKSFII [JAM2, P57087]
below the threshold | SQPLLVHDDV [KIT, P10721]

Biological target: T7, PDZD7_3, Q9H5P4
Experiment: holdup assay
Parameters: key: below the threshold = too weak to quantify, mostly under pKd 3.1 to 4
Conditions: plain residues with an end cap or a label only (N-terminal biotin on a linker: ado-ado)

pKd | Binder
4.03 | EFKQTSSFLV [JAM1, Q9Y624]
below the threshold | DFKHTKSFII [JAM2, P57087]
below the threshold | SQPLLVHDDV [KIT, P10721]

Biological target: Inadl_6, Q8NI35
Experiment: holdup assay
Parameters: key: below the threshold = too weak to quantify, mostly under pKd 3.1 to 4
Conditions: plain residues with an end cap or a label only (N-terminal biotin on a linker: ado-ado)

Inadl_6, Q8NI35, sequence (Q8NI35 1058-1167): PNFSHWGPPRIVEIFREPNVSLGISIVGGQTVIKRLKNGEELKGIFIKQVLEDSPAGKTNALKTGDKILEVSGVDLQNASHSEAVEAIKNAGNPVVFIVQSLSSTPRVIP

pKd | Binder
below the threshold | EFKQTSSFLV [JAM1, Q9Y624]
below the threshold | DFKHTKSFII [JAM2, P57087]
below the threshold | SQPLLVHDDV [KIT, P10721]

Biological target: T8, APBA2_1, Q99767
Experiment: holdup assay
Parameters: key: below the threshold = too weak to quantify, mostly under pKd 3.1 to 4
Conditions: plain residues with an end cap or a label only (N-terminal biotin on a linker: ado-ado)

pKd | Binder
below the threshold | EFKQTSSFLV [JAM1, Q9Y624]
below the threshold | DFKHTKSFII [JAM2, P57087]
below the threshold | SQPLLVHDDV [KIT, P10721]

Biological target: T9, TJP3_3, O95049
Experiment: holdup assay
Parameters: key: below the threshold = too weak to quantify, mostly under pKd 3.1 to 4
Conditions: plain residues with an end cap or a label only (N-terminal biotin on a linker: ado-ado)

pKd | Binder
below the threshold | EFKQTSSFLV [JAM1, Q9Y624]
below the threshold | DFKHTKSFII [JAM2, P57087]
below the threshold | SQPLLVHDDV [KIT, P10721]

Biological target: GRIP2_4, Q9C0E4
Experiment: holdup assay
Parameters: key: below the threshold = too weak to quantify, mostly under pKd 3.1 to 4
Conditions: plain residues with an end cap or a label only (N-terminal biotin on a linker: ado-ado)

GRIP2_4, Q9C0E4, sequence (Q9C0E4 446-548): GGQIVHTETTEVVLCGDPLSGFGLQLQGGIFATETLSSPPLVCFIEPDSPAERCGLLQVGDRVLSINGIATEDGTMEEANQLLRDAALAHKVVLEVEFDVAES

pKd | Binder
below the threshold | EFKQTSSFLV [JAM1, Q9Y624]
below the threshold | DFKHTKSFII [JAM2, P57087]
below the threshold | SQPLLVHDDV [KIT, P10721]

Biological target: T10, ARHGAP21, Q5T5U3
Experiment: holdup assay
Parameters: key: below the threshold = too weak to quantify, mostly under pKd 3.1 to 4
Conditions: plain residues with an end cap or a label only (N-terminal biotin on a linker: ado-ado)

pKd | Binder
below the threshold | EFKQTSSFLV [JAM1, Q9Y624]
below the threshold | DFKHTKSFII [JAM2, P57087]
below the threshold | SQPLLVHDDV [KIT, P10721]

Biological target: T11, DLG3_1, Q92796
Experiment: holdup assay
Parameters: key: below the threshold = too weak to quantify, mostly under pKd 3.1 to 4
Conditions: plain residues with an end cap or a label only (N-terminal biotin on a linker: ado-ado)

pKd | Binder
below the threshold | EFKQTSSFLV [JAM1, Q9Y624]
below the threshold | DFKHTKSFII [JAM2, P57087]
below the threshold | SQPLLVHDDV [KIT, P10721]

Biological target: T12, DLG3_2, Q92796
Experiment: holdup assay
Parameters: key: below the threshold = too weak to quantify, mostly under pKd 3.1 to 4
Conditions: plain residues with an end cap or a label only (N-terminal biotin on a linker: ado-ado)

pKd | Binder
4.2 | EFKQTSSFLV [JAM1, Q9Y624]
4.2 | DFKHTKSFII [JAM2, P57087]
below the threshold | SQPLLVHDDV [KIT, P10721]

Biological target: DLG1_2, Q12959
Experiment: holdup assay
Parameters: key: below the threshold = too weak to quantify, mostly under pKd 3.1 to 4
Conditions: plain residues with an end cap or a label only (N-terminal biotin on a linker: ado-ado)

DLG1_2, Q12959, sequence (Q12959 314-412): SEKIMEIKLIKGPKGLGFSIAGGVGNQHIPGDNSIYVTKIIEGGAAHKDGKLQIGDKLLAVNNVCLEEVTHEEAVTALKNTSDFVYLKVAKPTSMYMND

pKd | Binder
below the threshold | EFKQTSSFLV [JAM1, Q9Y624]
3.81 | DFKHTKSFII [JAM2, P57087]
below the threshold | SQPLLVHDDV [KIT, P10721]

Biological target: MAGI2_6, Q86UL8
Experiment: holdup assay
Parameters: key: below the threshold = too weak to quantify, mostly under pKd 3.1 to 4
Conditions: plain residues with an end cap or a label only (N-terminal biotin on a linker: ado-ado)

MAGI2_6, Q86UL8, sequence (Q86UL8 1141-1229): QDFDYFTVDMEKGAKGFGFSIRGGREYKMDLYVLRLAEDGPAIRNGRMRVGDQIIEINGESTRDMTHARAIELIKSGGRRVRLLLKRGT

pKd | Binder
below the threshold | EFKQTSSFLV [JAM1, Q9Y624]
below the threshold | DFKHTKSFII [JAM2, P57087]
below the threshold | SQPLLVHDDV [KIT, P10721]

Biological target: GRID2IP_2, A4D2P6
Experiment: holdup assay
Parameters: key: below the threshold = too weak to quantify, mostly under pKd 3.1 to 4
Conditions: plain residues with an end cap or a label only (N-terminal biotin on a linker: ado-ado)

GRID2IP_2, A4D2P6, sequence (A4D2P6 272-370): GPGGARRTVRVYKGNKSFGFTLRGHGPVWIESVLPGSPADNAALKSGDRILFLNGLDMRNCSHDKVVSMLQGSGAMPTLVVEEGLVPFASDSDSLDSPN

pKd | Binder
below the threshold | EFKQTSSFLV [JAM1, Q9Y624]
below the threshold | DFKHTKSFII [JAM2, P57087]
below the threshold | SQPLLVHDDV [KIT, P10721]

Biological target: Inadl_4, Q8NI35
Experiment: holdup assay
Parameters: key: below the threshold = too weak to quantify, mostly under pKd 3.1 to 4
Conditions: plain residues with an end cap or a label only (N-terminal biotin on a linker: ado-ado)

Inadl_4, Q8NI35, sequence (Q8NI35 547-651): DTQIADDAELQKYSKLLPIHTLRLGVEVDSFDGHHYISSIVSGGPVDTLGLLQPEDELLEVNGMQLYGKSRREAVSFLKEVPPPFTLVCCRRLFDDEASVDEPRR

pKd | Binder
below the threshold | EFKQTSSFLV [JAM1, Q9Y624]
below the threshold | DFKHTKSFII [JAM2, P57087]
below the threshold | SQPLLVHDDV [KIT, P10721]

Biological target: T13, SYNJ2BP, P57105
Experiment: holdup assay
Parameters: key: below the threshold = too weak to quantify, mostly under pKd 3.1 to 4
Conditions: plain residues with an end cap or a label only (N-terminal biotin on a linker: ado-ado)

pKd | Binder
below the threshold | EFKQTSSFLV [JAM1, Q9Y624]
below the threshold | DFKHTKSFII [JAM2, P57087]
below the threshold | SQPLLVHDDV [KIT, P10721]
